Results: patent US20220331363A1

Target: human Burkitt's lymphoma cell Daudi
Experiment: flow cytometry (FACS) on Daudi cells, which Example 3 says do not express BCMA

Substance: murine anti-BCMA antibody C11D5.3 (scFv), reference antibody
- EC50: 58.2 µg/mL
